# Laboratory results: US20170313750A1 (Novo Nordisk, published 2017)
# Numbered stars: 1 amine (or outer) side, 2 acyl side, 3 side chain; on linkers, the order of the positions; unused ones are H or OH. Side chains are listed from the residue outwards. * marks the point of attachment. C18 diacid = O=C(O)CCCCCCCCCCCCCCCCC(=O)*; γGlu = O=C(O)[C@H](CCC(=O)[*:2])N[*:1]; Isovaleryl = CC(C)CC(=O)*; AEEA = NCCOCCOCC(=O)O
# B1: N{alpha-4}-(3-Methylbutanoyl)-N{Epsilon-7}-[2-[2-[2-[[2-[2-[2-[[(4S)-4-carboxy-4-(17-carboxyheptadecanoylamino)butanoyl]amino]ethoxy]ethoxy]acetyl]amino]-ethoxy … (peptide)
# peptide: RPEKPTEDASPEELQRYYASLRHYYNWLTRQRY
# modifications: N-terminal alpha-amino (position 4): 3-methylbutanoyl; Lys7 (hPYY(1-36) numbering) epsilon-amino: [2-[2-[2-[[2-[2-[2-[[(4S)-4-carboxy-4-(17-carboxyheptadecanoylamino)butanoyl]amino]ethoxy]ethoxy]acetyl]amino]ethoxy]ethoxy]acetyl]; C-terminal amide
# notes: also called Compound 14; 14
# B2: N{alpha-4}-(3-Methylbutanoyl)-N{Epsilon-10}-[2-[2-[2-[[2-[2-[2-[[(4S)-4-carboxy-4-(17-carboxyheptadecanoylamino)butanoyl]amino]ethoxy]ethoxy]acetyl]-amino]ethox … (peptide)
# peptide: Isovaleryl-RPEAPGK([AEEA-AEEA-γGlu-C18 diacid])DASPEELQRYYESLRHYYNWLTRQRY-NH2
# SMILES: CC(C)CC(=O)N[C@@H](CCCNC(=N)N)C(=O)N1CCC[C@H]1C(=O)N[C@@H](CCC(=O)O)C(=O)N[C@@H](C)C(=O)N1CCC[C@H]1C(=O)NCC(=O)N[C@@H](CCCCNC(=O)COCCOCCNC(=O)COCCOCCNC(=O)CC[C@H](NC(=O)CCCCCCCCCCCCCCCCC(=O)O)C(=O)O)C(=O)N[C@@H](CC(=O)O)C(=O)N[C@@H](C)C(=O)N[C@@H](CO)C(=O)N1CCC[C@H]1C(=O)N[C@@H](CCC(=O)O)C(=O)N[C@@H](CCC(=O)O)C(=O)N[C@@H](CC(C)C)C(=O)N[C@@H](CCC(N)=O)C(=O)N[C@@H](CCCNC(=N)N)C(=O)N[C@@H](Cc1ccc(O)cc1)C(=O)N[C@@H](Cc1ccc(O)cc1)C(=O)N[C@@H](CCC(=O)O)C(=O)N[C@@H](CO)C(=O)N[C@@H](CC(C)C)C(=O)N[C@@H](CCCNC(=N)N)C(=O)N[C@@H](Cc1c[nH]cn1)C(=O)N[C@@H](Cc1ccc(O)cc1)C(=O)N[C@@H](Cc1ccc(O)cc1)C(=O)N[C@@H](CC(N)=O)C(=O)N[C@@H](Cc1c[nH]c2ccccc12)C(=O)N[C@@H](CC(C)C)C(=O)N[C@H](C(=O)N[C@@H](CCCNC(=N)N)C(=O)N[C@@H](CCC(N)=O)C(=O)N[C@@H](CCCNC(=N)N)C(=O)N[C@@H](Cc1ccc(O)cc1)C(N)=O)[C@@H](C)O
# notes: also called Compound 51; 51
# B3: N{alpha-4}-(3-Methylbutanoyl)-N{Epsilon-10}-[(4S)-4-carboxy-4-[[2-[2-[2-[[(4S)-4-carboxy-4-(17-carboxyheptadecanoylamino)butanoyl]amino]ethoxy]ethoxy]-acetyl]am … (peptide)
# peptide: Isovaleryl-RPEAPPK([γGlu-AEEA-γGlu-C18 diacid])DASPEELQRYYASLRHYYNWLTRQRY-NH2
# SMILES: CC(C)CC(=O)N[C@@H](CCCNC(=N)N)C(=O)N1CCC[C@H]1C(=O)N[C@@H](CCC(=O)O)C(=O)N[C@@H](C)C(=O)N1CCC[C@H]1C(=O)N1CCC[C@H]1C(=O)N[C@@H](CCCCNC(=O)CC[C@H](NC(=O)COCCOCCNC(=O)CC[C@H](NC(=O)CCCCCCCCCCCCCCCCC(=O)O)C(=O)O)C(=O)O)C(=O)N[C@@H](CC(=O)O)C(=O)N[C@@H](C)C(=O)N[C@@H](CO)C(=O)N1CCC[C@H]1C(=O)N[C@@H](CCC(=O)O)C(=O)N[C@@H](CCC(=O)O)C(=O)N[C@@H](CC(C)C)C(=O)N[C@@H](CCC(N)=O)C(=O)N[C@@H](CCCNC(=N)N)C(=O)N[C@@H](Cc1ccc(O)cc1)C(=O)N[C@@H](Cc1ccc(O)cc1)C(=O)N[C@@H](C)C(=O)N[C@@H](CO)C(=O)N[C@@H](CC(C)C)C(=O)N[C@@H](CCCNC(=N)N)C(=O)N[C@@H](Cc1c[nH]cn1)C(=O)N[C@@H](Cc1ccc(O)cc1)C(=O)N[C@@H](Cc1ccc(O)cc1)C(=O)N[C@@H](CC(N)=O)C(=O)N[C@@H](Cc1c[nH]c2ccccc12)C(=O)N[C@@H](CC(C)C)C(=O)N[C@H](C(=O)N[C@@H](CCCNC(=N)N)C(=O)N[C@@H](CCC(N)=O)C(=O)N[C@@H](CCCNC(=N)N)C(=O)N[C@@H](Cc1ccc(O)cc1)C(N)=O)[C@@H](C)O
# notes: also called Compound 56; 56
# B4: N{alpha-4}-(3-Methylbutanoyl)-N{Epsilon-10}-[(4S)-4-carboxy-4-[[2-[2-[2-[[(4S)-4-carboxy-4-(17-carboxyheptadecanoylamino)butanoyl]amino]ethoxy]ethoxy]-acetyl]am … (peptide)
# peptide: Isovaleryl-RPEAPPK([γGlu-AEEA-γGlu-C18 diacid])DASPEELQRYYESLRHYYNWLTRQRY-NH2
# notes: also called Compound 54; 54
# What was measured:
# [1] = target: human Y4 receptor (P50391, NPY4R_HUMAN, Uniprot) (human) (UniProt P50391); assay: ratio of SPA values, Y2 as reference
# Chain of human Y4 receptor (P50391, NPY4R_HUMAN, Uniprot) (human) (P50391 whole entry): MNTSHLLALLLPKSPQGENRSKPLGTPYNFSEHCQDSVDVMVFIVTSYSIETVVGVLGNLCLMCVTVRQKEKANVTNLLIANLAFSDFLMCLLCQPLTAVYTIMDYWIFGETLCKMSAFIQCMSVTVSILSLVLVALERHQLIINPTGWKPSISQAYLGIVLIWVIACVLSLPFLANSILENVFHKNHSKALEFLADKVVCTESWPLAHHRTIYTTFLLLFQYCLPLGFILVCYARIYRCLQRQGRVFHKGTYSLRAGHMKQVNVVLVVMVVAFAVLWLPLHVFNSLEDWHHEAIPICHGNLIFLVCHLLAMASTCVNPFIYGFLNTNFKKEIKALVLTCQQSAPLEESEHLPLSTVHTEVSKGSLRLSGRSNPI
# [2] = target: T1, human Y1 receptor (P25929, NPY1R_HUMAN, Uniprot) (human, UniProt P25929 1-384); assay: SPA vs [125I]-PYY(1-36)
# T1 construct: whole, on cells; Assayed as membrane preparations of the expressing cells; also called NPY-Y1 receptor
# T1 sequence (looked up): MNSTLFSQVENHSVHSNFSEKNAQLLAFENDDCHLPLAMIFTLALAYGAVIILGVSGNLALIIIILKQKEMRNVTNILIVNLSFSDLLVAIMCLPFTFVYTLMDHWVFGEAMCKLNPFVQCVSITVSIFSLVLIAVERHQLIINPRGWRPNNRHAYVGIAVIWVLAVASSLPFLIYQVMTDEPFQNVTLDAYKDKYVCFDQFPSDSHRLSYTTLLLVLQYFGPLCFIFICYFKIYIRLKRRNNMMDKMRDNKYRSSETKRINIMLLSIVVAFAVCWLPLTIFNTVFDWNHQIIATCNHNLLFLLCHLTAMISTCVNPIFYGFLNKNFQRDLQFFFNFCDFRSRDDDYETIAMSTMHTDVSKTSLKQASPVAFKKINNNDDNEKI
# Method: (§1) Human Y receptor SPA binding assay were performed in white 96-well plates in a total volume of 200 μl per well.
# (§2) Plates were sealed and incubated at +25° C. for 2 hours in a plate shaker set at 400 rpm and thereafter centrifuged at 1500 rpm for 10 minutes prior to reading of luminescence on a microplate scintillation and luminescence counter.
# [3] = target: T2, human Y5 receptor (Q15761, NPY5R_HUMAN, Uniprot) (human, UniProt Q15761 1-445); assay: ratio of SPA values, Y2 as reference
# T2 construct: whole, on cells; Assayed as membrane preparations of the expressing cells
# T2 sequence (looked up): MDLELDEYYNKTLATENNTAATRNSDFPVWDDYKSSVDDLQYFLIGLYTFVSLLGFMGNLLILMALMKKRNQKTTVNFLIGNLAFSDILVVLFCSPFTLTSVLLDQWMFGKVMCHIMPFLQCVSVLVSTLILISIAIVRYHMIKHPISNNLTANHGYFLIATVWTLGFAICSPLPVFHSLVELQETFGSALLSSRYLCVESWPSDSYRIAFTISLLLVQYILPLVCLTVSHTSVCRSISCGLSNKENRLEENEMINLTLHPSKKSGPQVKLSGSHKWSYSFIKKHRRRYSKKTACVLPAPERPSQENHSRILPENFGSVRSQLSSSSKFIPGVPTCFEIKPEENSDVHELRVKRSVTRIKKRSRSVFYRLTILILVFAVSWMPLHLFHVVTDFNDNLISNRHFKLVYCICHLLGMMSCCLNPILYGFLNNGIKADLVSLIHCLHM
# Method: as §1, §2
# [4] = target: T3, human Y4 receptor (P50391, NPY4R_HUMAN, Uniprot) (human, UniProt P50391 1-375); assay: ratio of SPA values, Y2 as reference
# T3 construct: whole, on cells; Assayed as membrane preparations of the expressing cells
# T3 sequence (P50391 whole entry): as the sequence (P50391 whole entry) above
# Method: as §1, §2
# [5] = target: T4, human Y2 receptor (P49146, NPY2R_HUMAN, Uniprot) (human, UniProt P49146 1-381); assay: SPA vs [125I]-PYY(1-36)
# T4 construct: whole, on cells; also called human NPY Y2 receptor
# T4 sequence (looked up): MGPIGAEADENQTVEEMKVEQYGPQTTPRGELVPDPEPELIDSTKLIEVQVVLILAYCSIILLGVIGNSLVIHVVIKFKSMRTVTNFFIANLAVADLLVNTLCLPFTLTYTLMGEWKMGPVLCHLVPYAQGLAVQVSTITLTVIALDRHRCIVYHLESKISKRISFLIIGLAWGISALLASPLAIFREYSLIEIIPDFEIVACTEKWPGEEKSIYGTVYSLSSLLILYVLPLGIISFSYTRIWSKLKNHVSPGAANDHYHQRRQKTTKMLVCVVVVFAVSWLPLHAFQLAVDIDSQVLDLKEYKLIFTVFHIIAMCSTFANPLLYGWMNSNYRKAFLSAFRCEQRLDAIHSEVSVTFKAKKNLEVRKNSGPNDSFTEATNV
# Method: as §1, §2
# [6] = target: T2, human Y5 receptor (Q15761, NPY5R_HUMAN, …); assay: SPA vs [125I]-PYY(1-36)
# Method: as §1, §2
# [7] = target: T4, human Y2 receptor (P49146, NPY2R_HUMAN, …); assay: cell-based or functional assay
# [8] = target: T3, human Y4 receptor (P50391, NPY4R_HUMAN, …); assay: SPA vs [125I]-PP
# Method: as §1, §2
molecule,measurement,setting,value
"N{alpha-4}-(3-Methylbutanoyl)-N{Epsilon-7}-[2-[2-[2-[[2-[2-[2-[[2-[2-[2-[[2-[2-[2-[[(4S)-4-carboxy-4-(17-carboxyheptadecanoylamino)butanoyl]amino]-ethoxy]ethoxy]acetyl]amino]ethoxy]ethoxy]acetyl]amino]ethoxy]ethoxy]acetyl]amino]ethoxy]ethoxy]acetyl]-[Arg4,Lys7,Pro9,Gln18,Tyr28,Trp30,Leu31]-PYY(4-36) (peptide)",Ratio of Y4/Y2 SPA binding values,[1],> 18300
B1,Ki,[2],8820 nM
B2,Ratio of Y5/Y2 EC50 values,[3],50
same,Ratio of Y4/Y2 EC50 values,[4],> 4350
same,Ki,[5],2.3 nM
same,Ki,[6],116 nM
same,Ki,[2],2400 nM
same,"Y2 EC50, Actone functional potency assay",[7],0.99 nM
B3,Ki,[8],4410 nM
same,Ratio of Y5/Y2 EC50 values,[3],193
same,Ratio of Y4/Y2 EC50 values,[4],3060
same,Ki,[5],1.4 nM
same,Ki,[6],279 nM
same,"Y2 EC50, Actone functional potency assay",[7],0.54 nM
B4,Ki,[8],5910 nM
same,Ki,[5],3.1 nM
same,Ki,[6],254 nM
same,Ki,[2],2420 nM
same,"Y2 EC50, Actone functional potency assay",[7],1.6 nM
